# Experimental data: US20230110188A1 (ARGENX IIP, published 2023)
# T1: human monomeric MuSK FLAG streptavidin (in house produced, batch 27-6-2019) (human, UniProt O15146 24-495)
# T1 construct: also called full length MuSK; not shown: FLAG and streptavidin tags
# T1 sequence: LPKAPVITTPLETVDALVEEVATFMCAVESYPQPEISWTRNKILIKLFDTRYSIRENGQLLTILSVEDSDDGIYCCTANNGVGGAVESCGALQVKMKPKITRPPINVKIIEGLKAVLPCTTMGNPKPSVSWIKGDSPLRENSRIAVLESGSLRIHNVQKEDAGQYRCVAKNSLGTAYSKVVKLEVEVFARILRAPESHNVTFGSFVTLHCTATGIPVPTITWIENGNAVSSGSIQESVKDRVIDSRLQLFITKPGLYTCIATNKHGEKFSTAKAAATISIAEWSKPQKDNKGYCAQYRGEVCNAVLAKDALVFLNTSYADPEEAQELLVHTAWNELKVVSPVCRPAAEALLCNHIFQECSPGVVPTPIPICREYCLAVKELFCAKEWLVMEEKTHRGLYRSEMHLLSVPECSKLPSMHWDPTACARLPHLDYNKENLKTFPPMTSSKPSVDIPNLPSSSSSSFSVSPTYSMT
# T2: Human MuSK (R&D Systems, cat. 10189-MK, histidine tag) (human, UniProt O15146 24-495)
# T2 construct: Bought protein; also called human monomeric MuSK-6xhis; not shown: histidine tag (6xhis)
# T2 sequence: T1 sequence
# B1: 3B5 (antibody, V domains shown)
# VH: QVQLVQSGAVVAKPGASVQVSCKTSGYTFTGQYLHWVRQAPGQGLEWIGWINPSSGVTKFAEKFEGRATMTRDTSITTAYIDLRSLRSDDTATYYCATLSLGVYYVGMVAWGQGTLVTVSS
# VL: ELTQPPSVSVSPGQTATITCSGDGLAQQHVYWFQQRPGQAPLLIIYKDIERPSGIPERFSGSSSGTTAMLTISGVQAEDEADYYCQSGDRTATSVLFGGGTKMTVLG
# notes: also called 3B5wt
# What was measured:
# [1] = target: T1, human monomeric MuSK FLAG streptavidin …; assay: epitope binning ELISA (coated anti-MuSK Fab, MuSK, IgG, anti-Fc HRP); competitor: 3D10a
# Description: (§1) For epitope binning—An ELISA plate was coated at 1 μg/ml of the anti-MuSK Fabs and incubated overnight at 4° C. Next, the plate was wash with PBS followed by blocking with 1% casein in PBS for one hour. After washing the plate, 1 μg/ml of human monomeric MuSK (in house produced, batch 27-6-2019) was incubated for one hour at RT. The plate was washed and anti-MuSK antibodies at 0.3-10 μg/ml were added to the plate and incubated for one hour at RT. After washing the plate, detection antibody (goat anti-human Fc HRP (Jackson Immunoresearch cat. 109-035-098)) was added at 5000 fold dilution in PBS 0.1% casein. The plate was incubated for one hour at RT and washed with PBS-T. TMB was added and the reaction was stopped by adding H2504. […]
# (§2) For the epitope binning ELISA, a plate was coated with anti-MuSK Fab and human monomeric MuSK was added after blocking the plate. Next the different antibodies were added and allowed to bind.
# [2] = target: T2, Human MuSK (R&D Systems, cat. 10189-MK, …); assay: SPR (Biacore), MuSK-coated chip, antibody alone (run of first antibody 3D10a)
# Description: (§3) A chip was coated with ˜5000 RU of human MuSK (Lot nr DHUCO 11908A, batch nr 1089_MK). In a first experiment the saturating concentration of the pre-leads was determined. This is the concentration where the amplitude of a specific pre-lead doesn't increase anymore when additional pre-lead is injected on the immobilized MuSK.
# [3] = target: T2, Human MuSK (R&D Systems, cat. 10189-MK, …); assay: SPR (Biacore), MuSK-coated chip presaturated with 500 nM 4D3 (competitor)
# Description: as §3
# [4] = target: T2, Human MuSK (R&D Systems, cat. 10189-MK, …); assay: SPR (Biacore), MuSK-coated chip, antibody alone (run of first antibody 4D3)
# Description: as §3
# [5] = target: T2, Human MuSK (R&D Systems, cat. 10189-MK, …); assay: SPR (Biacore), MuSK-coated chip presaturated with 3F6c
# [6] = target: T1, human monomeric MuSK FLAG streptavidin …; assay: epitope binning ELISA (coated anti-MuSK Fab, MuSK, IgG, anti-Fc HRP); competitor: 3F6c
# Description: as §1, §2
# [7] = target: T1, human monomeric MuSK FLAG streptavidin …; assay: epitope binning ELISA (coated anti-MuSK Fab, MuSK, IgG, anti-Fc HRP); competitor: 3B5wt
# Description: as §1, §2
# [8] = target: T2, Human MuSK (R&D Systems, cat. 10189-MK, …); assay: SPR (Biacore), MuSK-coated chip, antibody alone (run of first antibody 3F6c)
# Description: as §3
# [9] = target: T2, Human MuSK (R&D Systems, cat. 10189-MK, …); assay: SPR (Biacore), MuSK-coated chip, antibody alone (run of first antibody 3D9b)
# Description: as §3
# [10] = target: T1, human monomeric MuSK FLAG streptavidin …; assay: epitope binning ELISA (coated anti-MuSK Fab, MuSK, IgG, anti-Fc HRP); competitor: 4D3
# Description: as §1, §2
# [11] = target: T2, Human MuSK (R&D Systems, cat. 10189-MK, …); assay: SPR (Biacore), MuSK-coated chip presaturated with 500 nM 3F6c (competitor)
# Description: as §3
# [12] = target: T1, human monomeric MuSK FLAG streptavidin …; assay: epitope binning ELISA (coated anti-MuSK Fab, MuSK, IgG, anti-Fc HRP); competitor: 3D9b
# Description: as §1, §2
# [13] = target: T2, Human MuSK (R&D Systems, cat. 10189-MK, …); assay: SPR (Biacore), MuSK-coated chip presaturated with 500 nM 3D10a (competitor)
# Description: as §3
# [14] = target: T2, Human MuSK (R&D Systems, cat. 10189-MK, …); assay: SPR (Biacore), MuSK-coated chip presaturated with 500 nM 3D9b (competitor)
# Description: as §3
binder,measurement,setting,value
B1,OD 450 nm,[1],1.88 OD
same,amplitude of prelead without presaturating MuSK (RU),[2],658 RU
same,amplitude of prelead after presaturating MuSK (RU),[3],141 RU
same,extra amplitude (%),[3],93%
same,normalized extra amplitude (%),[3],88.1%
same,amplitude of prelead without presaturating MuSK (RU),[4],151 RU
same,fold of binding signal against amplitude on non-saturated MuSK,[5],≥ 3 fold
same,OD 450 nm,[6],2.03 OD
same,OD 450 nm,[7],0.048 OD
same,amplitude of prelead without presaturating MuSK (RU),[8],562 RU
same,amplitude of prelead without presaturating MuSK (RU),[9],399 RU
same,OD 450 nm,[10],1.96 OD
same,amplitude of prelead after presaturating MuSK (RU),[11],2230 RU
same,extra amplitude (%),[11],397%
same,normalized extra amplitude (%),[11],395%
same,OD 450 nm,[12],1.99 OD
same,amplitude of prelead after presaturating MuSK (RU),[13],2260 RU
same,extra amplitude (%),[13],344%
same,normalized extra amplitude (%),[13],342%
same,amplitude of prelead after presaturating MuSK (RU),[14],2150 RU
same,extra amplitude (%),[14],539%
same,normalized extra amplitude (%),[14],538%
